Laboratory results taken from the DeepSol protein solubility set.

experiment: soluble on expression in E. coli; label from the status in PepcDB or PDB records

Row | Sequence | soluble on expression in E. coli
1 | MQKPSIPKGMRDFSPVEMSRRNYIFDTIREVYELFGFNQIETPTMEMLSTLMGKYGEEGDRLLFKVLNSGDVLADFCAEELAEKNSLRFAAKACEKGLRYDLTVPFARYVVMHRNEINFPFKRYQIQPVWRADRPQKGRYREFYQCDGDVIGSDSLMNEVELIQIISEVFRRLGIRTRILLNNRKILSGIAEVVDEADRLTDITVAIDKLDKIGLDKVNDELRTKGFGEEAIERLRPFIEMKGDNREKLDRLKSALASSETGLKGIEELTYILDKVERVQLHSELMVDISLARGLSYYTGAILEVKALDAEMGSITGGGRYDNLTGIFGLEGMSGVGISFGADRIYDVMMQLDLFPAEKLTGTQLLFVNFSEEDADSLLPLIQKLREQGLRTELYPEPAKIKKQMSYANAANIPYVALVGENERAAGQVNLKNMLTGEQQMLPADAATIVAAIV | not soluble
2 | MQKQNIVILGSTGSIGKSTLSVIENNPQKYHAFALVGGKNVEAMFEQCIKFRPHFAALDDVNAAKILREKLIAHHIPTEVLAGRRAICELAAHPDADQIMASIVGAAGLLPTLSAVKAGKRVLLANKESLVTCGQLFIDAVKNYGSKLLPVDSEHNAIFQSLPPEAQEKIGFCPLSELGVSKIILTGSGGPFRYTPLEQFTNITPEQAVAHPNWSMGKKISVDSATMMNKGLEYIEARWLFNASAEEMEVIIHPQSIIHSMVRYVDGSVITQMGNPDMRTPIAETMAYPHRTFAGVEPLDFFKIKELTFIEPDFNRYPNLKLAIDAFAAGQYATTAMNAANEIAVQAFLDRQIGFMDIAKINSKTIERISPYTIQNIDDVLEIDAQAREIAKTLLRE | not soluble
3 | MQLKRVAEAKLPTPLGDFLMVGFEELATGHDHAALVFGDISGKTPVLARVHSECLTGDALFSLRCDCGFQLEAALTHIAEEGRGILIYHRQEGRNIGLLNKIRAYALQDQGYDTVEANHQLGFAADERDFTLCADMFKLLGVDEVRLLTNNPKKVEILTEAGINIVERVPLIVGRNPNNEHYLDTKAAKMGHLLSKLEHHHHHH | soluble
4 | MQLNSSSFHPHHFTCDTTRYSEEQVACICEALSNDARKLSQFVWTVLERDEMRNNQYILKAQAFLAFHSNNFKELYRIIESHHFASEHHLPLQEWWLNAHYHEAEKIRGRQLGAVGKYRIRRKYPLPRTIWDGEETSYCFRDKSRVLLRDWYCRNSYPSPREKRELAEKTHLTVTQVSNWFKNRRQRDRAGVPEPKDCLKDISEEEDLKLIRKTASKLSNSFHNPSDLSSYSAAAAAATFPGFYMNYNDMMIGAGTSYQSL | not soluble
5 | MQLPVMPPVSPMLAKSVTAIPPDASYEPKWDGFRSICFRDGDQVELGSRNERPMTRYFPELVAAIRAELPHRCVIDGEIIIATDHGLDFEALQQRIHPAESRVRMLADRTPASFIAFDLLALGDDDYTGRPFSERRAALVDAVTGSGADADLSIHVTPATTDMATAQRWFSEFEGAGLDGVIAKPPHITYQPDKRVMFKIKHLRTADCVVAGYRVHKSGSDAIGSLLLGLYQEDGQLASVGVIGAFPMAERRRLLTELQPLVTSFDDHPWNWAAHVAGQRTPRKNEFSRWNVGKDLSFVPLRPERVVEVRYDRMEGARFRHTAQFNRWRPDRDPRSCSYAQLERPLTVSLSDIVPGLR | not soluble
6 | MQLVVARIGRAHGIKGEVTVEVRTDEPELRLGPGAVLATDPASTGPLTIESGRVHSGRLLLRFAGVHDRTGAEALRNTLLIADVDPDERPEDEDEYYDHQLIDLDVVTEDGTEVGRITEISHLPTQDLFVVERPDGSEVYVPFVSEIVTGIDLDAQRAVIDPPPGLIDDRAEIASARDAGAEDAGDEALEHHHHHH | soluble
7 | MQNDNHSTAQPEKDVARLTEEVREAIAHGGDIENAIRNLTLKAMHSNGLDIESLKQIATAVMKGVQEGAQQKMTHAAEQSHAAQSQITQAVVGLDTAFAQLAGASKLALEEAASKAKQFSDSELTKAQADLKDLESVFLDTLKHTATAAQGLIAETLRDMLSHAQHNGTAVGMQLKDTLAVFAHQMASTGRAQFEAGVKLTQTTADLLYKISTGVLSGITSQTNRDDK | not soluble
8 | MQNHVISLASAAERRAHIAATFGSRGIPFQFFDALMPSERLEQAMAELVPGLSAHPYLSGVEKACFMSHAVLWEQALDEGLPYIAVFEDDVLLGEGAEQFLAEDTWLEERFDKDSAFIVRLETMFMHVLTSPSGVADYGGRAFPLLESEHCGTAGYIISRKAMRFFLDRFAVLPPERLHPVDLMMFGNPDDREGMPVCQLNPALCAQELHYAKFHDQNSALGSLIEHDRRLNRKQQWRDSPANTFKHRLIRALTKIGREREKRRKRREQTIGKIIVPFQLEHHHHHH | soluble
